# Measurements reported in US20230285581A1.
# Key:
# [1] = molecular target: human MSR1 extracellular domain expressed with a N-terminal nonahistidine tag (His9-hMSR1; R&D Systems, Cat #2708-MS) (human) (UniProt P21757); assay: competition ELISA; 100 nM antibody, competitor Ac-LDL, plate-coated His9-hMSR1
# [2] = molecular target: human MSR1 extracellular domain expressed with a N-terminal nonahistidine tag (His9-hMSR1; R&D Systems, Cat #2708-MS) (human) (UniProt P21757); assay: competition ELISA; 1 µM antibody, competitor 10 nM Ox-LDL, plate-coated His9-hMSR1
# [3] = molecular target: human MSR1 extracellular domain expressed with a N-terminal nonahistidine tag (His9-hMSR1; R&D Systems, Cat #2708-MS) (human) (UniProt P21757); assay: competition ELISA; 300 nM antibody, competitor biot-AGE-BSA, plate-coated His9-hMSR1
# [4] = molecular target: human MSR1 endogenously expressed on PMA-differentiated THP-1 cells (human) (UniProt P21757); assay: confocal imaging, 10 µg/mL antibody + Alexa Fluor 488 secondary on PMA-differentiated THP-1 cells
# human MSR1 endogenously expressed on PMA-differentiated THP-1 cells (human), sequence (P21757 whole entry): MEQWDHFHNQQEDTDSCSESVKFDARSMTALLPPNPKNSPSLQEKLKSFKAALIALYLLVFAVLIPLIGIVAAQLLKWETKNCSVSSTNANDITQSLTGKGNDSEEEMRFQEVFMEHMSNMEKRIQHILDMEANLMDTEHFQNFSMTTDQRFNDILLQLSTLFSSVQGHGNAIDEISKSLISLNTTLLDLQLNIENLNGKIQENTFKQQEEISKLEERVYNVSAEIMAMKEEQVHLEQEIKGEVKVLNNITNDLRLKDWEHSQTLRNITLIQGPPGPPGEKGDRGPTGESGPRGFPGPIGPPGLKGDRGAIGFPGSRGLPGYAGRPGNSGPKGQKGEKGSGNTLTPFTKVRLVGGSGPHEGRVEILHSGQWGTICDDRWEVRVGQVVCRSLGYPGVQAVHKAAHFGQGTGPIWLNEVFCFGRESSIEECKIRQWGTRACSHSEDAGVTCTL
# [5] = molecular target: mouse MSR1 on RAW264.7 cells (mouse) (UniProt P30204); assay: flow cytometry, RAW264.7 cells, 10 ug/mL
# mouse MSR1 on RAW264.7 cells (mouse), sequence (P30204 whole entry): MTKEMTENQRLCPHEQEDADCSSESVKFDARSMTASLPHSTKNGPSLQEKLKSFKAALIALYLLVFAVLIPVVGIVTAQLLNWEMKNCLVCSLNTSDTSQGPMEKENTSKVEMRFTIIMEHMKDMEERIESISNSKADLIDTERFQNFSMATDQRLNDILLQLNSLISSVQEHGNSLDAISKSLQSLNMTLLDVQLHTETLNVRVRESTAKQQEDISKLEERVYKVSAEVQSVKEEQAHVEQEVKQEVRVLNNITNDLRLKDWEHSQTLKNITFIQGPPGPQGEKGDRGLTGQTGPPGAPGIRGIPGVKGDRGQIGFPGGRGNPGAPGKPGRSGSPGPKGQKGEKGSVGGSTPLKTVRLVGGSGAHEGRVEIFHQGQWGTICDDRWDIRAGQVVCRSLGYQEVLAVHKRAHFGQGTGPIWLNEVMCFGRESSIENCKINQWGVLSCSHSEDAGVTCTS
# [6] = molecular target: full length monkey MSR1 on HEK293.mfMSR1 cells (Macaca fascicularis); assay: ECL cell binding, HEK293.mfMSR1 cells
# full length monkey MSR1 on HEK293.mfMSR1 cells (Macaca fascicularis), sequence (chain, as listed by the source): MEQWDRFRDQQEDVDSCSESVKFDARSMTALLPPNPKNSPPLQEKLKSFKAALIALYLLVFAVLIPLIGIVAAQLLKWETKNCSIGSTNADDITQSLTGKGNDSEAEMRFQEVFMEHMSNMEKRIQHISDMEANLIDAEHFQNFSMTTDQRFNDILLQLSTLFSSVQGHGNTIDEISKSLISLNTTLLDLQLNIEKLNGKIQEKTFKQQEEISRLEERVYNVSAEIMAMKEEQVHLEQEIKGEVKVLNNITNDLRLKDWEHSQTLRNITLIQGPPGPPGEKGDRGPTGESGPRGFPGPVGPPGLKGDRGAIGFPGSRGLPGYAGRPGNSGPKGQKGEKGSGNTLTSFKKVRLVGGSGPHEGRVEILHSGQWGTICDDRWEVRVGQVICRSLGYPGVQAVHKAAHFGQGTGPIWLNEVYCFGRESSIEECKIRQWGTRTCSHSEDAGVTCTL
# [7] = molecular target: full length human MSR1 with a C-terminal Myc tag on HEK293.Myc.hMSR1 cells (human) (UniProt P21757); assay: ECL cell binding, HEK293.Myc.hMSR1 cells
# full length human MSR1 with a C-terminal Myc tag on HEK293.Myc.hMSR1 cells (human), sequence (P21757 whole entry): as the sequence (P21757 whole entry) above
# [8] = molecular target: endogenously expressed human MSR1 on PMA-treated THP-1 cells (human) (UniProt P21757); assay: ECL cell binding, PMA-treated THP-1 cells
# endogenously expressed human MSR1 on PMA-treated THP-1 cells (human), sequence (P21757 whole entry): as above
# human MSR1 extracellular domain expressed with a N-terminal nonahistidine tag (His9-hMSR1; R&D Systems, Cat #2708-MS) (human), sequence (P21757 other isoform, or with tags, fused parts or gaps): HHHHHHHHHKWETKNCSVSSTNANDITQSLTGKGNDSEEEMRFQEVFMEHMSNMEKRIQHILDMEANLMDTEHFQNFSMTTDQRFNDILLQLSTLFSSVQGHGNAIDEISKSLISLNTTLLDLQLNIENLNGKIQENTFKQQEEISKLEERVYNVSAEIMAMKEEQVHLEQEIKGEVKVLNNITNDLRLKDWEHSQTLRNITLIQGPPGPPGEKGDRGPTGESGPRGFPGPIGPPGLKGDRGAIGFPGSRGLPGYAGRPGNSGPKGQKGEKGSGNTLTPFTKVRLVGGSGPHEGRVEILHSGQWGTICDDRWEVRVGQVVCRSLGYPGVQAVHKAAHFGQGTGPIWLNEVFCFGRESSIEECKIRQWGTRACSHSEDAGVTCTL
Substance,% Blocking [1] [%],% Blocking [2] [%],% Blocking [3] [%],ratio of 11 nM antibody binding signal (RLU) to isotype control [6],ratio of 11 nM antibody binding signal (RLU) to isotype control [7],ratio of 11 nM antibody binding signal (RLU) to isotype control [8],other results
Human IgG1 Isotype Control mAb (antibody),-8,3,4,–,–,–,–
Isotype control (Table 19) (antibody),–,–,–,–,–,–,Total Binding at 4° C. (RFU) [4]: 186000 RFU; Total Binding at 37° C. (RFU) [4]: 1.09e+06 RFU
Mouse IgG1 Isotype control mAb (antibody),-4,16,7,–,–,–,–
"commercial anti-mouse MSR1 antibody (Sino Biological, Cat #50129-R004)",–,–,–,–,–,–,MFI [5]: 245000; S/N [5]: 97
hIgG1 Isotype Control (antibody),–,–,–,1,1,1,–
mIgG Isotype Control (antibody),–,–,–,1,1,1,–
